Experimental data from patent US20160039936A1, “FIBROBLAST GROWTH FACTOR RECEPTOR INHIBITION FOR THE TREATMENT OF DISEASE” (UNIVERSITY OF MIAMI, priority 2011, published 2016).

What was measured:
isolated NRVM = test: Quantitative PCR of ANP and BNP in NRVM; type: cell-based, rat; conditions: for expression of ANP and BNP: 48 h, FGF alone, qPCR
Experimental: Total RNA was purified from isolated NRVMs using Trizol (G Biosciences) according to the manufacturer's protocol, and reverse transcribed using Qscript (Quanta Biosciences). Gene expression was quantified by real-time PCR on a Biorad CFX 96 real-time Detection System using 200 ng of cDNA, PerfeCTA SYBR Green FastMix ROX (Quanta Biosciences). RNA from total mouse and rat hearts was extracted using the PureLink RNA Mini Kit (Ambion by Life Technologies) and Trizol (Life Technologies). 2 μg total RNA was reverse-transcribed using First Stand cDNA Synthesis Kit for RT-PCR (AMV) (Roche Diagnostics). Quantitative PCR reactions were carried out in the StepOne plus Real-Time PCR System (Applied Biosystems) using FAST SYBR Green Master Mix (Applied Biosystems). Raw data were quantified via StepOne™ software v2.3 from life Technologies. Relative gene expression was normalized to expression levels of 18S rRNA (for NRVM), and GAPDH or beta actin (mouse and rat tissue), and evaluated using the 2^−ΔΔCt method.

[1] = test system: neonatal mouse ventricular myocytes (NMVM); test: Hypertrophic growth and β-MHC of isolated NMVM (wild-type or FGFR4−/−); type: cell-based; conditions: 48 h
Experimental: NMVM were isolated enzymatically (Kreusser et al., 2014). Briefly, hearts from 1-3 day-old mice were harvested, minced in PBS/glucose and further digested with collagenase type 2 (0.2% w/v) and DNase (0.05% w/v) on a rotary shaker at 37° C. for 11 minutes. Cells were then released from the tissue by triturating the suspension twice with a standard 10 ml plastic serological pipette, transferred to DF10 medium (Dulbecco's Modified Eagle Medium/Ham's Nutrient Mixture F12 adjusted to 17 mM NaHCO2 containing 2 mM L-glutamine, 1% P/S and 10% FBS), and stored on ice. The remaining tissue was further incubated in PBS/glucose/collagenase/DNase solution on a rotary shaker at 37° C. for 11 minutes. The trituration and incubation steps were repeated 5-7 times until the tissue was completely dissolved. Cells were pelleted at 300 g for 5 minutes, resuspended in DF20 media (Dulbecco's Modified Eagle Medium/Ham's Nutrient Mixture F12 adjusted to 17 mM NaHCO2 containing 2 mM L-glutamine, 1% P/S and 20% FBS), and preplated for 1 hour to eliminate fibroblasts. Remaining cells were counted using a hemocytometer and plated on glass and plastic surfaces, which were coated with laminin (Sigma-Aldrich; 10 μg/ml in PBS) at room temperature for 1 hour prior to plating. For immunofluorescence analysis, 3×10^5 cells were seeded per well on glass coverslips in 24-well plates. For Western blot analyses of total protein extracts, 5×10^6 cells were seeded in 10 cm-culture dishes. Cells were left undisturbed in DF20 medium at 37° C. for 72 hours, starved overnight with DF medium (Dulbecco's Modified Eagle Medium/Ham's Nutrient Mixture F12 adjusted to 17 mM NaHCO2 containing 2 mM L-glutamine, 1% P/S), and treated in DF medium with recombinant FGF23, FGF2 (both at 100 ng/ml) or AngII (1 μM, Sigma-Aldrich) for 48 hours.
HEK293 cells, NRVM or NMVM were treated with growth factors for 30 minutes to analyze activation of signal transduction mediators, or for 48 hours to analyze expression levels of hypertrophic marker proteins. Cells were scraped from 6-well plates using 500 μl CHAPS extraction buffer (20 mM Tris-HCl pH7.5, 500 mM NaCl, 0.5% CHAPS, protease inhibitor cocktail (Roche), protein phosphatase inhibitors [Sigma-Aldrich]) and incubated on ice for 30 minutes. The cell lysate was centrifuged at 14,000 rpm and 4° C. for 30 minutes, and the supernatant boiled in sample buffer and analyzed by SDS-PAGE and immunoblotting. For protein extraction from mouse hearts, tissue was isolated, minced and homogenized in RIPA extraction buffer (50 mM Tris-HCl pH 7.5, 200 mM NaCl, 1% Triton X-100, 0.25% DOC, 1 mM EDTA, 1 mM EGTA, protease and phosphatase inhibitors) at 1:10 (w:v), and protein lysates were prepared as described above.
Cultured cells were fixed in 2% PFA (in 5 mg/ml sucrose) for 5 minutes and permeabilized in 1% Triton X-100 (in PBS) for 10 minutes. We analyzed hypertrophic growth of isolated NRVM and NMVM on laminin-coated glass coverslips after 48 hours of treatment with growth factors. For FGFR4 expression and localization analyses, untreated NMVM from wild-type and FGFR4^−/− mice were immunolabeled. The mouse monoclonal antibody against sarcomeric α-actinin (EA-53; Sigma-Aldrich) was used at 1:1,000, and rabbit polyclonal anti-FGFR4 (C-16; Santa Cruz) at 1:50. Cy3-conjugated goat-anti mouse and Alexa488-conjugated goat-anti rabbit (Jackson Immuno Research) were used as secondary antibodies at 1:300. To visualize nuclei, fixed cells were incubated with 4′,6-diamidino-2-phenylindole (DAPI; 400 ng/ml in PBS) for 10 minutes. Immunofluorescence images were taken on a Leica TCS-SP5 confocal microscope with a 63× oil objective.
Myocyte cross-sectional area was measured based on α-actinin-positive staining using Leica AF6000 fluorescence software. […]

Molecule | FGF2-mediated increases in ANP and BNP expression with inhibitor (isolated NRVM; 48 h co-treatment) | FGF23-mediated increases in ANP and BNP expression with inhibitor (isolated NRVM; 48 h co-treatment) | expression of ANP and BNP (isolated NRVM) | expression of β-MHC protein in wild-type NMVM ([1]; immunoblot) | cross-sectional area of wild-type NMVM ([1]; FGF 100 ng/ml, AngII 1 μM) | expression of β-MHC protein in FGFR4−/− NMVM ([1]; immunoblot) | cross-sectional area (size) of NMVM from FGFR4−/− mice ([1]; FGF 100 ng/ml, AngII 1 μM)
CCN(CC)CCCCNc1ncc2cc(-c3cc(OC)cc(OC)c3)c(NC(=O)NC(C)(C)C)nc2n1 [PD173074] | blocks | blocks |  |  |  |  | 
FGF23: recombinant mouse FGF23, 6His-tagged Tyr25-Val251 (Arg179Gln) (R&D Systems) (protein, left off: small tags and cut ends) YPDTSPLLGSNWGSLTHLYTATARTSYHLQIHRDGHVDGTPHQTIYSALMITSEDAGSVVITGAMTRRFLCMDLHGNIFGSLHFSPENCKFRQWTLENGYDVYLSQKHHYLVSLGRAKRIFQPGTNPPPFSQFLARRNEVPLLHFYTVRPRRHTQSAEDPPERDPLNVLKPRPRATPVPVSCSRELPSAEEGGPAASDPLGVLRRGRGDARGGAGGADRCRPFPRFV |  |  | significantly increased | increased expression | significant increases |  | 
FGF2: recombinant mouse FGF2 (Ala11-Ser154) (R&D Systems) (protein) ALPEDGGAAFPPGHFKDPKRLYCKNGGFFLRIHPDGRVDGVREKSDPHVKLQLQAEERGVVSIKGVCANRYLAMKEDGRLLASKCVTEECFFFERLESNNYNTYRSRKYSSWYVALKRTGQYKLGSKTGPGQKAILFLPMSAKS |  |  | significantly increased | increased expression | significant increases | induced this effect | increase the size
